We go through 1 substance from paper PMC4877809.

The target of this experiment is CotB3 (class I P450 hydroxylase of the cyclooctatin pathway) (Streptomyces melanosporofaciens MI614-43F2) (UniProt C9K1X6).
Chain of UniProt C9K1X6 (C9K1X6 whole entry): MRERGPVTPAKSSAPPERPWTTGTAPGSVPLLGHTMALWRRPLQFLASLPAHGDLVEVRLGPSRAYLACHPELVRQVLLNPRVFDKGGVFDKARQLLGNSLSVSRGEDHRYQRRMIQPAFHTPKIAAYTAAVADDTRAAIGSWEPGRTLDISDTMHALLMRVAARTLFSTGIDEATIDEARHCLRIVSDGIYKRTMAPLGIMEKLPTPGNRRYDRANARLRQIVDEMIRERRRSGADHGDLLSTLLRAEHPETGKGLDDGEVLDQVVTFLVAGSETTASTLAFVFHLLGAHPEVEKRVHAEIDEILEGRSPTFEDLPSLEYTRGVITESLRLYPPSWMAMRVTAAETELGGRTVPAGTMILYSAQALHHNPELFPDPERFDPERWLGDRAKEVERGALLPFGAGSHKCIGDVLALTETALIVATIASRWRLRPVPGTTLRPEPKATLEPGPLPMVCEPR

For the substance “Pdx-W106E (putidaredoxin, ferredoxin of the Pseudomonas putida PdR·Pdx redox system, W106E mutant) (natural protein)”, the whole cell catalysis in E. coli (CotB3 with PdR/Pdx-W106E): formation of cyclooctat-9-en-5,7-diol from added cyclooctat-9-en-7-ol, GC-MS stood at 100%.
